Experimental data from patent US20110300113A1, “Death Receptor CD95 Controls Neurogenesis of Adult Neural Stem Cells in Vivo and in Vitro” (DEUTSCHES KREBSFORSCHUNGSZENTRUM, priority 2006, published 2011).

Assays:
[1] = test system: GSK3β and AKT phosphorylation; assay: Western blot of GSK3β and AKT phosphorylation in NSCs; format: cell-based, mouse; conditions: inhibitor pretreatment
Description: Western Blots. Phosphorylated GSK3β (P-Ser9-GSK3β, 1:1000), phosphorylated AKT (P-Ser473-KT, 1:1000), total AKT (T-AKT, 1:1000), Src family kinases (Src, 1:1000), cleaved caspase 3 (1:250), total β-Catenin (1:1000) and phosphorylated src (Tyr416) were purchased from Cell Signaling/New England Biolabs. pp60(c-Src) antibody was purchased from Upstate. Antibody against total GSK3β (T-GSK3β, 1:1000), were purchased from Santa Cruz. The PI3K inhibitor […] (25 μM) and the Src family kinase inhibitor PP2 (20 μM) were purchased from Calbiochem. Cells were preincubated with inhibitors 30 minutes (LY 294002) and 1 hour (PP2) prior to treatment. Cells were lysed for further biochemical analysis. Protein extraction and immunoblotting was performed as previously described.

[2] = target: CD95 (APO-1 or Fas), mouse, endogenous in neural stem cells / brain tissue (mouse) (UniProt P25446); assay: cell-based or functional assay
Sequence of CD95 (APO-1 or Fas), mouse, endogenous in neural stem cells / brain tissue (mouse) (P25446 22-327): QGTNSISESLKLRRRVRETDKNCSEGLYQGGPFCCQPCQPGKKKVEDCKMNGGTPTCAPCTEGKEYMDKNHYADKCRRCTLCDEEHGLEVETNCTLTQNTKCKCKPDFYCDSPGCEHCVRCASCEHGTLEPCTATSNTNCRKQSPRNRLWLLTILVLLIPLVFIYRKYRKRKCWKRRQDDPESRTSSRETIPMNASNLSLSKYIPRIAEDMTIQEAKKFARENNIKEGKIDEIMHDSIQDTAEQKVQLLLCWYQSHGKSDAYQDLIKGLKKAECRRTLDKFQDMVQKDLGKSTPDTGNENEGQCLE

neural progenitor cells = assay: GFAP expression (glial differentiation) in neural progenitor cells; format: cell-based, mouse; conditions: data not shown
Description: For staining of intracellular markers, cells were harvested, fixed with 4% PFA for 10 min on ice, washed and permeabilized using 0.1% Saponin (Sigma-Aldrich) in PBS with 10% FCS (SAP). Cells were incubated with primary antibody or isotype for 30 min on ice. Cells were washed three time with SAP and incubated with secondary antibody for 30 min on ice. Cells were washed again three times with SAP and analysed. Antibodies used were: anti β-III-tubulin (Chemicon) 1:100, anti GFAP (Chemicon) 1:100 and isotype mouse IgG1 (Sigma) 1:20. Secondary antibody was goat anti-mouse PE 1:100 (Dianova). To quantify DNA fragmentation, cells detached with trypsin were centrifuged, washed and fixed with 70% ethanol at −20° C. for 1 h. Fixed cells were resuspended in a hypotonic lysis buffer (0.1% sodium citrate and 0.1% Triton X-100) containing […] of propidium iodide, incubated at 4° C. overnight. After final washings, all samples were analysed using a FACS-Calibur (Becton Dickinson) and CellQuest Software (Becton Dickinson).
Mouse adult neural stem cell culture. NSCs were isolated as previously described^30. Briefly, 6 week old female C57BL6 mice were sacrificied and tissue from hippocampus, SVZ and spinal cord was dissected out. […]

mouse adult SVZ NSCs = assay: Gene expression by quantitative real-time PCR in adult SVZ NSCs; format: cell-based; conditions: 48 h after stimulation
Description: Real-time Quantitative PCR. 24 h cells after plating cells were stimulated with 1 activation unit of CD95L-T4. After 48 h RNA was isolated using the RNeasy Mini Kit (Qiagen). Real-time quantitative PCR was carried out using Sybr Green core kits (Eurogentec) and Uracil-N-glycosylase (Eurogentec). For determining CD95L induction after global ischemia, the hippocampi were dissected out and stored in RNAlater reagent (Ambion). RNA was extracted using the RNeasy Mini Kit (Qiagen). Real-time quantitative PCR was carried out using Sybr Green core kits (Eurogentec) and Uracil-N-glycosylase (Eurogentec). Primers used for quantitative real-time PCR were designed using Primer 3 software (http://fokker.wi.mit.edu/cgi-bin/primer3/primer3_www.cgi).

SVZ NSCs = assay: β-III-tubulin expression in adult SVZ neural progenitor cells (flow cytometry); format: cell-based, mouse; conditions: exogenous BDNF alone; data not shown
Source text: Lentiviral infections. SVZ NSCs were infected with the lentiviral vector pEIGW and pEIGW-GSK3βS9A at a multiplicity of infection (MOI) of 5. The plasmids were constructed by replacing the eGFP sequence between the EF1α promotor and the WPRE element in pWPTS-eGFP with the IRES-eGFP cassette form pIRES2-eGFP (Clontech, Germany). The recombinant lentiviral vector pEIGW-GSK3βS9A was constructed using pcDNA3 HA-GSK3βS9A. This vector encodes a constitutively active GSK3β mutant containing a serine-to-alanine substitution at residue 9 (GSK3βS9A). Expression of all transgenes was confirmed in infected cells by FACS analysis of GFP expression. The percentage of infected cells was 70-90%.
siRNA. […] 48 h later pp60 src knockdown was assessed by Western Blot. At the same time, cells were stimulated with CD95L-T4 and analysed after 48 h for β-III-tubulin positive cells.
For staining of intracellular markers, cells were harvested, fixed with 4% PFA for 10 min on ice, washed and permeabilized using 0.1% Saponin (Sigma-Aldrich) in PBS with 10% FCS (SAP). […] Cells were washed again three times with SAP and analysed. […] To quantify DNA fragmentation, cells detached with trypsin were centrifuged, washed and fixed with 70% ethanol at −20° C. for 1 h. […] After final washings, all samples were analysed using a FACS-Calibur (Becton Dickinson) and CellQuest Software (Becton Dickinson). […]

CC(C)(C)n1nc(-c2ccc(Cl)cc2)c2c(N)ncnc21 [PP2]
phosphorylation of GSK3β ([1]; CD95-induced): inhibited phosphorylation | phosphorylation of AKT ([1]; induced by CD95L): inhibited phosphorylation

mus musculus CD95-Ligand-T4 (mmCD95L-T4) (from UniProt P41047 140-279; P10104 458-484)
PI3K activity at 1 min after treatment with 1 U of CD95L-T4 (relative to untreated = 1) (fold of untreated) [2]: 1.38 | PI3K activity at 5 min after treatment with 1 U of CD95L-T4 (relative to untreated = 1) (fold of untreated) [2]: 1.53 | β-III-tubulin positive cells, NSCs with control siRNA, after CD95L-T4 [2]: 18.1% | β-III-tubulin positive cells, NSCs with transfection reagent only, after CD95L-T4 [2]: 17.1%

B1: CNTF: inducer of astrocytic differentiation (protein, UniProt P26441 1-200, looked up)
Ciliary neurotrophic factor: MAFTEHSPLTPHRRDLCSRSIWLARKIRSDLTALTESYVKHQGLNKNINLDSADGMPVASTDQWSELTEAERLQENLQAYRTFHVLLARLLEDQQVHFTPTEGDFHQAIHTLLLQVAAFAYQIEELMILLEYKIPRNEADGMPINVGDGGLFEKKLWGLKVLQELSQWTVRSIHDLRFISSHQTGIPARGSHYIANNKKM
GFAP expression (neural progenitor cells): enhanced expression of GFAP | BDNF expression (mouse adult SVZ NSCs): induced | Doublecortin like kinase1 (DCLK) expression (mouse adult SVZ NSCs): no effect on DCLK expression | Jagged1 mRNA levels (mouse adult SVZ NSCs): decreased | Neurogenin (Ngn1) expression (mouse adult SVZ NSCs): almost complete loss of Ngn1 mRNA

B2: BDNF: brain-derived nerve factor, a neurotrophin (protein, UniProt P23560 19-247, looked up)
Neurotrophic factor BDNF …: APMKEANIRGQGGLAYPGVRTHGTLESVNGPKAGSRGLTSLADTFEHVIEELLDEDQKVRPNEENNKDADLYTSRVMLSSQVPLEPPLLFLLEEYKNYLDAANMSMRVRRHSDPARRGELSVCDSISEWVTAADKKTAVDMSGGTVTVLEKVPVSKGQLKQYFYETKCNPMGYTKEGCRGIDKRHWNSQCRTTQSYVRALTMDSKKRIGWRFIRIDTSCVCTLTIKRGR
β-III-tubulin expression (SVZ NSCs): did not increase β-III-tubulin expression
